Test results taken from patent publication US20220177604A1.
Read-outs that look alike come from different tables or passages of the source.

Key:
[1] = target: biotinylated human FcRn (human) (UniProt P55899); assay: competition ELISA at pH 6: biotinylated human FcRn on neutravidin, competitor recombinant hIgG3 (m8), bound IgG3 detected
[2] = target: biotinylated human FcRn (human) (UniProt P55899); assay: FcRn binding ELISA at pH 6: biotinylated human FcRn on neutravidin, anti-human IgG-Fc-HRP
[3] = target: biotinylated human FcRn (human) (UniProt P55899); assay: competition ELISA at pH 6: biotinylated human FcRn on neutravidin, competitor recombinant hIgG3 (m8), bound IgG3 detected; remark: listed apart in the source
[4] = target: biotinylated human FcRn (human) (UniProt P55899); assay: FcRn binding ELISA at pH 7: biotinylated human FcRn on neutravidin, anti-human IgG-Fc-HRP
[5] = target: biotinylated human FcRn (human) (UniProt P55899); assay: competition ELISA at pH 6: biotinylated human FcRn on neutravidin, competitor recombinant hIgG3 (m8), bound IgG3 detected; remark: listed apart in the source
[6] = target: biotinylated human FcRn (human) (UniProt P55899); assay: FcRn binding ELISA at pH 6: biotinylated human FcRn on neutravidin, anti-human IgG-Fc-HRP; remark: listed apart in the source
[7] = target: biotinylated human FcRn (human) (UniProt P55899); assay: FcRn binding ELISA at pH 7: biotinylated human FcRn on neutravidin, anti-human IgG-Fc-HRP; remark: listed apart in the source
[8] = target: human IgE pre-bound on human basophils (human) (UniProt P01854); assay: cell-based or functional assay

| IC50 (read off the curve) [1] [nM] | EC50 (read off the curve) [2] [nM] | IC50 (read off the curve) [3] [nM] | EC50 (read off the curve) [4] [nM] | IC50 (read off the curve) [5] [nM] | EC50 (read off the curve) [6] [nM] | EC50 (read off the curve) [7] [nM] | % of activated basophils (CCR3+CD63+) [8] [%] | Substance |
| --- | --- | --- | --- | --- | --- | --- | --- | --- |
| 0.7 | 0.06 | 0.9 | 0.09 | 0.6 | 0.05 | 0.02 | – | Efgartigimod |
| – | – | – | – | – | – | – | 3 | Irrelevant antibody |
